B1: Protein PTHB1 (Homo sapiens), Q3SYG4 (parent)
chain: MSLFKARDWWSTILGDKEEFDQGCLCLANVDNSGNGQDKIIVGSFMGYLRIFSPHPAKTGDGAQAEDLLLEVDLRDPVLQVEVGKFVSGTEMLHLAVLHSRKLCVYSVSGTLGNVEHGNQCQMKLMYEHNLQRTACNMTYGSFGGVKGRDLICIQSMDGMLMVFEQESYAFGRFLPGFLLPGPLAYSSRTDSFLTVSSCQQVESYKYQVLAFATDADKRQETEQQKLGSGKRLVVDWTLNIGEQALDICIVSFNQSASSVFVLGERNFFCLKDNGQIRFMKKLDWSPSCFLPYCSVSEGTINTLIGNHNNMLHIYQDVTLKWATQLPHIPVAVRVGCLHDLKGVIVTLSDDGHLQCSYLGTDPSLFQAPNVQSRELNYDELDVEMKELQKIIKDVNKSQGVWPMTEREDDLNVSVVVSPNFDSVSQATDVEVGTDLVPSVTVKVTLQNRVILQKAKLSVYVQPPLELTCDQFTFEFMTPDLTRTVSFSVYLKRSYTPSELEGNAVVSYSRPTDRNPDGIPRVIQCKFRLPLKLICLPGQPSKTASHKITIDTNKSPVSLLSLFPGFASQSDDDQVNVMGFHFLGGARITVLASKTSQRYRIQSEQFEDLWLITNELILRLQEYFEKQGVKDFACSFSGSIPLQEYFELIDHHFELRINGEKLEELLSERAVQFRAIQRRLLARFKDKTPAPLQHLDTLLDGTYKQVIALADAVEENQGNLFQSFTRLKSATHLVILLIALWQKLSADQVAILEAAFLPLQEDTQELGWEETVDAAISHLLKTCLSKSSKEQALNLNSQLNIPKDTSQLKKHITLLCDRLSKGGRLCLSTDAAAPQTMVMPGGCTTIPESDLEERSVEQDSTELFTNHRHLTAETPRPEVSPLQGVSE
partner: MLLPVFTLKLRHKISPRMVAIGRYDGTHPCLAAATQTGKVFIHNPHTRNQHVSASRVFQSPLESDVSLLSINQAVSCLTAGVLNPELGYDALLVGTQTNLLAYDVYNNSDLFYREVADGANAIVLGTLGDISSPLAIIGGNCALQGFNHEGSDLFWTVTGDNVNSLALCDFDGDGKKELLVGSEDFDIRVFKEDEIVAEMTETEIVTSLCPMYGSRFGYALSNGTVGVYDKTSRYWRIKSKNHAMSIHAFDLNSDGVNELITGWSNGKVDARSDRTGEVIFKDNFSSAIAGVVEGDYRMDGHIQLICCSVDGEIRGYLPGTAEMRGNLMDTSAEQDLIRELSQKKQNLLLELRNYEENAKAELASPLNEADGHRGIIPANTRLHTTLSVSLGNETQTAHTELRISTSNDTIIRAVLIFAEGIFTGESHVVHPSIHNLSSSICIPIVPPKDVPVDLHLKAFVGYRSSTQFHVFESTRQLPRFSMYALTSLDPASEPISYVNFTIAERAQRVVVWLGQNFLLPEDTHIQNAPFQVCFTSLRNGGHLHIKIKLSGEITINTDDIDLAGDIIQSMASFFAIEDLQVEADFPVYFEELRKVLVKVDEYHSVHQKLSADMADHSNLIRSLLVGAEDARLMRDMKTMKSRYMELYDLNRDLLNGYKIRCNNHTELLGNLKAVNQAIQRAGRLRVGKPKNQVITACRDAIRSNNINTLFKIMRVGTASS

Variants of: B1
Conditions: with bbs2_human BBS2, Q9BXC9

Variant	effect of a mutation on the interaction
N796K	with no effect
T836E	with no effect
T836A	with no effect
K821A	with no effect
D817K	with no effect
D817A	with no effect
G841A	with no effect
G841E	with no effect
G841K	with no effect
C816A	with no effect
P802E	with no effect
K809E	with no effect
K809A	with no effect
Q791L	disrupting interaction strength
Q791E	with no effect
Q791S	disrupting interaction strength
Q791K	with no effect
S787K	with no effect
G822A	with no effect
G822K	with no effect
G822E	with no effect
S797K	with no effect
T845E	with no effect
T845K	with no effect

Variant	effect of a mutation on the interaction
E790K	with no effect
D804A	with no effect
L827K	with no effect
L827A	disrupting interaction strength
R824K	with no effect
R824W	disrupting interaction strength
R824A	with no effect
T813A	with no effect
S828K	with no effect
S828E	with no effect
S828A	with no effect
L814K	with no effect
L814A	with no effect
K789E	with no effect
K789A	with no effect
G842A	with no effect
T805A	with no effect
T805E	with no effect
T805K	with no effect
Q835M	disrupting interaction strength
Q835K	with no effect
Q835A	with no effect
T844E	with no effect
T844A	with no effect

Variant	effect of a mutation on the interaction
S788K	with no effect
S788A	with no effect
K810E	with no effect
G823A	with no effect
G823E	with no effect
G823K	with no effect
Q798E	with no effect
D830K	with no effect
H811K	with no effect
H811A	with no effect
H811E	with no effect
L808K	with no effect
L808A	with no effect
S806A	with no effect
S806E	with no effect
L819K	with no effect
L825K	with no effect
A792K	with no effect
P834A	with no effect
I812A	with no effect
I812K	with no effect
R818K	with no effect
I801A	with no effect
A833S	disrupting interaction strength

Variant	effect of a mutation on the interaction
A833E	with no effect
L799E	with no effect
L799K	with no effect
L793A	with no effect
L793E	with no effect
P840K	with no effect
P840E	with no effect
M837E	with no effect
M837K	disrupting interaction strength
N800K	with no effect
N800A	with no effect
L815A	with no effect
L815E	with no effect
L815K	with no effect
L815F	disrupting interaction strength
C843E	with no effect
C843A	with no effect
S820K	with no effect
S820E	with no effect
S820A	with no effect
V838E	with no effect
L795E	with no effect
N794A	with no effect

Results, then the variant that gave them:

effect of a mutation on the interaction	Variant
with no effect	N796A
with no effect	N796E
with no effect	T836K
with no effect	K821E
with no effect	M839A
with no effect	M839E
disrupting interaction strength	M839K
with no effect	D817E
with no effect	C816E
with no effect	C816K
with no effect	P802K
with no effect	P802A
with no effect	Q791A
with no effect	S787E
with no effect	S787A
with no effect	I846A
with no effect	I846E
with no effect	A832K
with no effect	A832E
disrupting interaction strength	G822R
with no effect	S797A

effect of a mutation on the interaction	Variant
with no effect	S797E
with no effect	T845A
with no effect	E790A
with no effect	D804K
with no effect	D804E
disrupting interaction strength	D804F
with no effect	L827E
with no effect	R824E
with no effect	C826K
with no effect	C826A
with no effect	C826E
with no effect	T813K
with no effect	T813E
disrupting interaction strength	T813C
with no effect	A831E
with no effect	A831K
with no effect	L814E
with no effect	G842E
with no effect	G842K
disrupting interaction strength	T805I
with no effect	Q835E

effect of a mutation on the interaction	Variant
with no effect	T844K
with no effect	S788E
with no effect	K810A
with no effect	Q798A
with no effect	Q798K
with no effect	D830E
with no effect	D830A
disrupting interaction strength	L808E
with no effect	S806K
with no effect	L819A
with no effect	L819E
with no effect	L825E
with no effect	L825A
with no effect	A792E
with no effect	P834E
with no effect	P834K
with no effect	I812E
with no effect	R818E
with no effect	R818A
with no effect	I801E
with no effect	I801K

effect of a mutation on the interaction	Variant
with no effect	K803E
with no effect	K803A
with no effect	Q807K
with no effect	Q807A
with no effect	Q807E
with no effect	A833K
with no effect	L799A
with no effect	L793K
disrupting interaction strength	P840A
with no effect	M837A
with no effect	N800E
with no effect	T829A
with no effect	T829K
with no effect	T829E
with no effect	C843K
disrupting interaction strength	V838A
with no effect	V838K
with no effect	L795K
with no effect	L795A
with no effect	N794E
with no effect	N794K

— IntAct's records for PubMed 29039417
